The record followed here is patent US20240166738A1 (priority 2021, published 2024).

The chains are these.
B1: TM-84: anti-TMEM106B monoclonal antibody; VH SEQ ID NO: 489, VL SEQ ID NO: 524 (antibody, V domains shown)
VH: QVQLQQSGAELVKPGASVKMSCKASGYTFTTFPIEWMKQNHGKSLEWIGNFHPYNDDTKYNEKFKGKATLTVEKSSSTVYLELSRLTSDDSAVYYCARYFYGGMDYWGQGTSVTVSS
VL: DIQMTQSPASLSVSVGETVTITCRASENIYSSLGWYHQKQGKSPQLLVFAATNLADGVPSRFSGSGSGTQYSLKINSLQSEDFGTYYCQHLWSVPWTFGGGTKLEIK
modifications: Variable Heavy Chain -- TM-84; Variable Light Chain -- TM-84
B2: TM-88: anti-TMEM106B monoclonal antibody; VH SEQ ID NO: 493, VL SEQ ID NO: 528 (antibody, V domains shown)
VH: EAQLQQSGPVLVKPGASVKMSCKTSGYTFTDYYINWVKQSHGKSLEWIGVINPYSGATYYTQKFKGKATLTVDKSSSTAYMELNSQTSEDSAVYYCARGGYDYGHWYFDVWGTGTTVTVSS
VL: ETTVTQSPASLSMAIGEKVTIRCITSSDIDDHMNWYRQKPGEPPEFLISEGNALRPGVPSRFSSSGYGTDFIFTIENILSEDVADYYCLQSDNLPLTFGAGTKLELK
modifications: Variable Heavy Chain -- TM-88; Variable Light Chain -- TM-88
B3: TM-7: anti-TMEM106B monoclonal antibody; CDR-H1-3 SEQ ID NO: 8, 41, 84; CDR-L1-3 SEQ ID NO: 126, 166, 190 (antibody, V domains shown)
VH: EVQLQQSGPVLVKPGPPVKISCKASGFTFTDYYIHWVKLSHGKSLEWIGLVYPYNGDTDYNQKFKGKATLTVDTSSSTAYMELNSLTSEDSAVYYCARTYYANSPDYWGQGTTVTVSS
VL: DIVMTQSPSSLSVSAGEKVTMSCKSSQSLLNSGNQRNYLAWYQQKPGQPPKLLIYGASTRESGVPDRFTGSGSGTDFTLTISNVQAEDLAVYYCQNDHSYPLTFGAGTKLELK
B4: TM-86: anti-TMEM106B monoclonal antibody; VH SEQ ID NO: 491, VL SEQ ID NO: 526 (antibody, V domains shown)
VH: EVQLQQSGPVLVKPGASVKMSCKASGYTFTDYYIHWVKQSHGRSLEWIGVISPYNDNTNYNQKFKGKATLTVDKSSSTAYMELNSLTSEDSAVYYCVRTYYSNYFDYWGQGTTLTVSS
VL: B3 VL with R36K, Y42H, K45R, D76E, N83S
modifications: Variable Heavy Chain -- TM-86; Variable Light Chain -- TM-86
B5: TM-28: anti-TMEM106B monoclonal antibody; CDR-H1-3 SEQ ID NO: 8, 59, 102; CDR-L1-3 SEQ ID NO: 142, 166, 190 (antibody, V domains shown)
VH: EVQLQQSGPVLVKPGPSVKISCMASVFTFNDYYIHWVKQSHGKSLEWIGLVYPYNGGTNYNQNFKGKATLTVDTSSRTAYMELNSLTSEDSAVYYCARSYFSNPIGYWGQGTLVTVSE
VL: B3 VL with A15V, M21V, R36K, N83S
B6: TM-30: anti-TMEM106B monoclonal antibody; CDR-H1-3 SEQ ID NO: 21, 61, 104; CDR-L1-3 SEQ ID NO: 144, 160, 208 (antibody, V domains shown)
VH: QVQLQQSGPELVKPGASVKLSCKASDNTFTNYDVNWVRQRPGQGLEWIGWIYPRDGTTIYNEKFKGRATLTVDTSSSTAYMELHSLTSEDSAVFFCARTLPQAMDYWGQGTSVTVSS
VL: DVLMTQSPLSLPVSLGDQVSISCRSSQTIVHRNGNTYLEWYLQKPGQSPKLLIYKVSNRFSGVPDRFSGSGSGTDFTLKISRVEAEDLGVYYCFQGSHLPWTFGGGTKLEIK
B7: TM-15: anti-TMEM106B monoclonal antibody; CDR-H1-3 SEQ ID NO: 15, 49, 92; CDR-L1-3 SEQ ID NO: 133, 171, 197 (antibody, V domains shown)
VH: QVQLQQPGAEFVRPGASVKLSCKASGYTFTNYWITWVKQRPGHGLEWIGDIYPGSGNSNYNESFKRKATLTVDTSSSTAYMHLSSQTSEDSAVYFCARKAYGGFPYWGQGTLVTVSA
VL: DIQMTQSPASLSVSVGETVTITCRVSENIYNNLAWYQQKQEKSPQLLVFAATNLADGVPSRFSGSGSGTQFSLKINSLQSEDFGTYYCQHFWDTPFTFGSGTKLEIK
B8: TM-5: anti-TMEM106B monoclonal antibody; CDR-H1-3 SEQ ID NO: 6, 39, 82; CDR-L1-3 SEQ ID NO: 124, 164, 188 (antibody, V domains shown)
VH: QVQLQQSGTELARPGASVKVSCKASGYIFTTYGITWVKQRGGQGLEWIGEIYPRSDNTYYNEKFKDKATLTADKSSSTAYMELRSLTSEDSAVYFCARSKGSGTGDYWGQGTTVTVSS
VL: DIQMTQSPASLSASVGETVTITCRASENIYIYLAWYQQKQGKTPQLLVYNGKMLAENVPSRFSGSGSGTQFSLKINSLQPEDFGSYYCQHHYGSPPAFGAGTKLELK
B9: TM-21: anti-TMEM106B monoclonal antibody; CDR-H1-3 SEQ ID NO: 18, 54, 97; CDR-L1-3 SEQ ID NO: 137, 168, 201 (antibody, V domains shown)
VH: EVQLVESGGGLVKPGGSLKLSCAASGFTFSNYAMSWVRETPEKRLEWVAFISDGGGYIYYADNVKDRFTISRDNAKNNLYLQMRHLKSEDTAMYYCARDGGTGFTYWGQGTLVTVSV
VL: DIVMTQAAFSNPVTLGTSASISCRSSKSLLHSNGITYLFWYLQKPGQSPQLLIYQMSNLASGVPDRFSSSGSGTDFTLRISRVEAEDVGVYYCVQNLELPYTFGGGTKLEIK
B10: TM-29: anti-TMEM106B monoclonal antibody; CDR-H1-3 SEQ ID NO: 20, 60, 103; CDR-L1-3 SEQ ID NO: 143, 168, 207 (antibody, V domains shown)
VH: QVQLRQSGAELVRPGASVKLSCKASGYTFTDYYINWVKQRPGQGLEWIARIYPGSGYTYYNEKFKGKATLTAEGSSNTAYMQLSSLTSEDSAVYFCANHYTNPFAYWGQGTLVTVSA
VL: B9 VL with S32Y, F39Y, V94A

Changes are numbered by the printed parent chain.

GST-TMEM106B (truncated, comprising amino acids 122-210 of SEQ ID NO:1), sequence (Q9NUM4 122-210): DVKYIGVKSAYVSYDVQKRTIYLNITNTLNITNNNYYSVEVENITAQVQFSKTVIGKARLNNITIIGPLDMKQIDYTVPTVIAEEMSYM

One experiment concerns the target GST-TMEM106B (truncated, comprising amino acids 122-210 of SEQ ID NO:1) (Homo sapiens, UniProt Q9NUM4). The experiment is described as follows: Pre-mix epitope binning of anti-TMEM106B antibodies (Carterra / Lake Pharma). The note with it: competition for binding to truncated GST-TMEM106B (amino acids 122-210). Details: key to epitope bin: Bin 1: competes for binding to the same or overlapping TMEM106B region as the TM1, TM17, TM22, TM26, TM79, and/or TM82 antibodies; Bin 2: competes for binding to the same or overlapping TMEM106B region as the TM3, TM9, TM10, TM11, TM12, TM13, TM18, TM19, TM21, TM24, TM25, TM32, TM35, TM37, TM42, TM45, TM48, TM54, TM59, TM60, TM61, and/or TM76 antibodies; Bin 3: competes for binding to the same or overlapping TMEM106B region as the TM7, TM15, TM83, and/or TM84 antibodies; Bin 4: competes for binding to the same or overlapping TMEM106B region as the TMS, TM28, TM29, TM30, TM63, TM64, TM72, TM78, TM80, TM86, and/or TM88 antibodies; Bin 5: does not bind to a truncated TMEM106B comprising amino acids 122-210 of SEQ ID NO:1. The class given is binding. As to the method:
(§1) Monoclonal anti-TMEM106B antibodies were immobilized to a CMD 50M chip (Xantec # SPMXCMD5OM lot# SCCMD50M0416). The running buffer was HBS-EP+ with 1 mg/mL BSA. The GST-TMEM106B (truncated, comprising amino acids 122-210 of SEQ ID NO:1) antigen was prepared at a final concentration of 55 nM (corresponding to 2 μg/mL) and mixed with the competing analyte anti-TMEM106B antibodies at a final concentration of 333 nM (corresponding to 50 μg/mL) or compared to a buffer control. Samples were injected for 5 minutes over the array and regenerated after every cycle with 1 minute of two parts Pierce IgG-Elution buffer (ThermoFisher Cat#21004) and 1 part of 10 mM Glycine, pH 2.0 (Carterra).
Anti-TMEM106B antibodies sorted into various competing bins and resulting binning profiles. […] Antibodies within Bin 3 or Bin 4 partially block Bin 2 antibodies.
as §1, with “SPMXCMD50M” for “SPMXCMD5OM”, “lmg/ml” for “1 mg/mL”, “(truncated)” for “(truncated, comprising amino acids 122-210 of SEQ ID NO:1)”, “μg/ml)” for “μg/mL)”
For the molecule B1, the epitope bin result is on record as “Bin 3”.
For the molecule B2, the epitope bin result is listed as “Bin 4”.
On the same count and under the same terms, the result for B3 reads “Bin 3”.
With B4, the epitope bin result is “Bin 4”.
The same measure, in the same setting: the result for B5 reads “Bin 4”; that for B6, “Bin 4”; that for B7, “Bin 3”.
On the same count and under the same terms, the result for B8 reads “Bin 4”.
On the same count and under the same terms, with B9 the entry was “Bin 2”; with B10, “Bin 4”.

Still in this experiment, the particulars now being: epitope bin number; pre-mix binning on truncated GST-TMEM106B.
Consider B1, for which the “Binding Community/Bin” value stood at 3.
On the same count and under the same terms, the result for B2 reads 4.
The same measure, in the same setting: the result for B3 reads 3.
On the same count and under the same terms, with B4 the figure was 4; with B5, 4.
B6: the “Binding Community/Bin” value stood at 4.
The same measure, in the same setting: with B7 the figure was 3.
On the same count and under the same terms, the result for B8 reads 4; that for B9, 2.
Regarding B10, the “Binding Community/Bin” value is on record as 4.
